Source: article doi:10.1101/2025.04.04.646765, “Molecular basis for multidrug efflux by an anaerobic RND transporter” (bioRxiv, 2025)

B1: Escherichia coli multidrug transporter MdtF, wild type (MdtF-6xHis) in SMA lipid particles (natural protein)
chain: MANYFIDRPVFAWVLAIIMMLAGGLAIMNLPVAQYPQIAPPTITVSATYPGADAQTVEDSVTQVIEQNMNGLDGLMYMSSTSDAAGNASITLTFETGTSPDIAQVQVQNKLQLAMPSLPEAVQQQGISVDKSSSNILMVAAFISDNGSLNQYDIADYVASNIKDPLSRTAGVGSVQLFGSEYAMRIWLDPQKLNKYNLVPSDVISQIKVQNNQISGGQLGGMPQAADQQLNASIIVQTRLQTPEEFGKILLKVQQDGSQVLLRDVARVELGAEDYSTVARYNGKPAAGIAIKLAAGANALDTSRAVKEELNRLSAYFPASLKTVYPYDTTPFIEISIQEVFKTLVEAIILVFLVMYLFLQNFRATIIPTIAVPVVILGTFAILSAVGFTINTLTMFGMVLAIGLLVDDAIVVVENVERVIAEDKLPPKEATHKSMGQIQRALVGIAVVLSAVFMPMAFMSGATGEIYRQFSITLISSMLLSVFVAMSLTPALCATILKAAPEGGHKPNALFARFNTLFEKSTQHYTDSTRSLLRCTGRYMVVYLLICAGMAVLFLRTPTSFLPEEDQGVFMTTAQLPSGATMVNTTKVLQQVTDYYLTKEKDNVQSVFTVGGFGFSGQGQNNGLAFISLKPWSERVGEENSVTAIIQRAMIALSSINKAVVFPFNLPAVAELGTASGFDMELLDNGNLGHEKLTQARNELLSLAAQSPNQVTGVRPNGLEDTPMFKVNVNAAKAEAMGVALSDINQTISTAFGSSYVNDFLNQGRVKKVYVQAGTPFRMLPDNINQWYVRNASGTMAPLSAYSSTEWTYGSPRLERYNGIPSMEILGEAAAGKSTGDAMKFMADLVAKLPAGVGYSWTGLSYQEALSSNQAPALYAISLVVVFLALAALYESWSIPFSVMLVVPLGVVGALLATDLRGLSNDVYFQVGLLTTIGLSAKNAILIVEFAVEMMQKEGKTPIEAIIEAARMRLRPILMTSLAFILGVLPLVISHGAGSGAQNAVGTGVMGGMFAATVLAIYFVPVFFVVVEHLFARFKKA
notes: also called MdtF^WT; apo-MdtF^WT; source: E. coli C43(DE3) ΔacrAB, extracted in SMALPs, purified (Ni-NTA, SEC)
B2: Escherichia coli multidrug transporter MdtF, single-point mutant V610F (MdtF-6xHis) in SMA lipid particles (natural protein)
chain: MANYFIDRPVFAWVLAIIMMLAGGLAIMNLPVAQYPQIAPPTITVSATYPGADAQTVEDSVTQVIEQNMNGLDGLMYMSSTSDAAGNASITLTFETGTSPDIAQVQVQNKLQLAMPSLPEAVQQQGISVDKSSSNILMVAAFISDNGSLNQYDIADYVASNIKDPLSRTAGVGSVQLFGSEYAMRIWLDPQKLNKYNLVPSDVISQIKVQNNQISGGQLGGMPQAADQQLNASIIVQTRLQTPEEFGKILLKVQQDGSQVLLRDVARVELGAEDYSTVARYNGKPAAGIAIKLAAGANALDTSRAVKEELNRLSAYFPASLKTVYPYDTTPFIEISIQEVFKTLVEAIILVFLVMYLFLQNFRATIIPTIAVPVVILGTFAILSAVGFTINTLTMFGMVLAIGLLVDDAIVVVENVERVIAEDKLPPKEATHKSMGQIQRALVGIAVVLSAVFMPMAFMSGATGEIYRQFSITLISSMLLSVFVAMSLTPALCATILKAAPEGGHKPNALFARFNTLFEKSTQHYTDSTRSLLRCTGRYMVVYLLICAGMAVLFLRTPTSFLPEEDQGVFMTTAQLPSGATMVNTTKVLQQVTDYYLTKEKDNVQSVFTFGGFGFSGQGQNNGLAFISLKPWSERVGEENSVTAIIQRAMIALSSINKAVVFPFNLPAVAELGTASGFDMELLDNGNLGHEKLTQARNELLSLAAQSPNQVTGVRPNGLEDTPMFKVNVNAAKAEAMGVALSDINQTISTAFGSSYVNDFLNQGRVKKVYVQAGTPFRMLPDNINQWYVRNASGTMAPLSAYSSTEWTYGSPRLERYNGIPSMEILGEAAAGKSTGDAMKFMADLVAKLPAGVGYSWTGLSYQEALSSNQAPALYAISLVVVFLALAALYESWSIPFSVMLVVPLGVVGALLATDLRGLSNDVYFQVGLLTTIGLSAKNAILIVEFAVEMMQKEGKTPIEAIIEAARMRLRPILMTSLAFILGVLPLVISHGAGSGAQNAVGTGVMGGMFAATVLAIYFVPVFFVVVEHLFARFKKA
notes: also called MdtF^V610F; apo-MdtF^V610F; source: E. coli C43(DE3) ΔacrAB, extracted in SMALPs, purified (Ni-NTA, SEC)

Target: the molecule itself
Test: cryo-EM structure

| Protein | stoichiometry N | binding result |
| --- | --- | --- |
| B1 | 3 | – |
| B2 | – | binds |
